Measured values taken from US20240376200A1 (Seagen, published 2024).

Legend:
[1] = molecular target: recombinant Antigen 1 (recombinant Ab1 target; recombinant integrin αvβ6 antigen); assay: saturation binding ELISA
[2] = molecular target: Antigen 1 (Ab1 target) expressed on HEK293 / HEK-293F cells; assay: saturation binding FACS, HEK293 cells
recombinant human CD47 = molecular target: T1, recombinant human CD47 (human, UniProt Q08722 19-139, limits assumed); assay: saturation binding ELISA
T1 construct: also called recombinant CD47 antigen

[3] = circular dichroism thermal denaturation at 222 nm

Antigen 1 (Ab1 target) expressed on HEK293 / HEK-293F cells, sequence (P06756 31-1048, chain 1 of 2): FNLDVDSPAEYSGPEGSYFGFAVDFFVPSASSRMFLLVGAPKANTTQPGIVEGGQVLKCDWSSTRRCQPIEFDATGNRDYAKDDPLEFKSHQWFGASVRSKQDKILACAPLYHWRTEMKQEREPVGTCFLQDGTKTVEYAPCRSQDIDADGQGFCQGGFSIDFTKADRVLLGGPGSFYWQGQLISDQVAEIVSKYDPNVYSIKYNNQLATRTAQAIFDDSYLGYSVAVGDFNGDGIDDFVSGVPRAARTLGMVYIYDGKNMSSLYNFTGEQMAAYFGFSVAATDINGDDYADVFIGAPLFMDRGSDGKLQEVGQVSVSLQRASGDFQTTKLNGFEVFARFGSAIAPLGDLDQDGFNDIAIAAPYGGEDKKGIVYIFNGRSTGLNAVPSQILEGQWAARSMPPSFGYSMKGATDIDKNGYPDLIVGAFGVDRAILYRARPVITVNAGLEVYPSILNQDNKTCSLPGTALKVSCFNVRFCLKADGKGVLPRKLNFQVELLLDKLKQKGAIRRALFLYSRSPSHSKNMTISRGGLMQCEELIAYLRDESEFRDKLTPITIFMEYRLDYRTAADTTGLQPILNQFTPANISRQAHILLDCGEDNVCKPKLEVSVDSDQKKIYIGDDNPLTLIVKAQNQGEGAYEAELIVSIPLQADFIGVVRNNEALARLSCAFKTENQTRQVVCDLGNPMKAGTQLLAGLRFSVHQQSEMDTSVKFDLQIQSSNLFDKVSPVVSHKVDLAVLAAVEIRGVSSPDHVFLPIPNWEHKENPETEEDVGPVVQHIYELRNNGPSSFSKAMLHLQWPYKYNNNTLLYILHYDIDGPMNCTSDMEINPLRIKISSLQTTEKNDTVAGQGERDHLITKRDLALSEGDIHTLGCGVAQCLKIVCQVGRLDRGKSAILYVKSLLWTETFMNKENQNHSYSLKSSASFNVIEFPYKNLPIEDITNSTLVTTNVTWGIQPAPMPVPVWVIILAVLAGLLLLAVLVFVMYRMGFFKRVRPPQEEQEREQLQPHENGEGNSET
Antigen 1 (Ab1 target) expressed on HEK293 / HEK-293F cells, sequence (P18564 22-788, chain 2 of 2, further chain): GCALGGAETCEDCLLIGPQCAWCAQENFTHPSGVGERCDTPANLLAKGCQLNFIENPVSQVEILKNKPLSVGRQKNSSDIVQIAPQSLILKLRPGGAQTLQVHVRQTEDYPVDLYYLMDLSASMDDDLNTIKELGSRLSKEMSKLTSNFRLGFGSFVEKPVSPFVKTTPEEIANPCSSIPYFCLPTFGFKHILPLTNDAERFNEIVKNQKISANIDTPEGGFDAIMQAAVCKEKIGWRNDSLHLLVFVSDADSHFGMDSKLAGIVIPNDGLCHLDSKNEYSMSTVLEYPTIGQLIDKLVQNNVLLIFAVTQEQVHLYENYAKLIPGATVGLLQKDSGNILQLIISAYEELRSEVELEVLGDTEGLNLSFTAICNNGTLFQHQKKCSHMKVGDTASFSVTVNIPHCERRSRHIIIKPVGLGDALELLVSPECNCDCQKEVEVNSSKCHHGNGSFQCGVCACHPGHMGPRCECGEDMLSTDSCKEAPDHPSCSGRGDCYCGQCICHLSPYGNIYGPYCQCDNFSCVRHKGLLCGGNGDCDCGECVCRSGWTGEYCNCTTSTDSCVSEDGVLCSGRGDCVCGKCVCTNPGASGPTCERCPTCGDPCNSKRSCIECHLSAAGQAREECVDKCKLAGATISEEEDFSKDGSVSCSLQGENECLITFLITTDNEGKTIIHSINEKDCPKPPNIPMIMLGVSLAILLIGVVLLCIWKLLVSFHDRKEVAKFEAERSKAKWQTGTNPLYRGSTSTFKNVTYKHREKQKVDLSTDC
recombinant Antigen 1 (recombinant Ab1 target; recombinant integrin αvβ6 antigen), sequence (P06756 31-992, chain 1 of 2): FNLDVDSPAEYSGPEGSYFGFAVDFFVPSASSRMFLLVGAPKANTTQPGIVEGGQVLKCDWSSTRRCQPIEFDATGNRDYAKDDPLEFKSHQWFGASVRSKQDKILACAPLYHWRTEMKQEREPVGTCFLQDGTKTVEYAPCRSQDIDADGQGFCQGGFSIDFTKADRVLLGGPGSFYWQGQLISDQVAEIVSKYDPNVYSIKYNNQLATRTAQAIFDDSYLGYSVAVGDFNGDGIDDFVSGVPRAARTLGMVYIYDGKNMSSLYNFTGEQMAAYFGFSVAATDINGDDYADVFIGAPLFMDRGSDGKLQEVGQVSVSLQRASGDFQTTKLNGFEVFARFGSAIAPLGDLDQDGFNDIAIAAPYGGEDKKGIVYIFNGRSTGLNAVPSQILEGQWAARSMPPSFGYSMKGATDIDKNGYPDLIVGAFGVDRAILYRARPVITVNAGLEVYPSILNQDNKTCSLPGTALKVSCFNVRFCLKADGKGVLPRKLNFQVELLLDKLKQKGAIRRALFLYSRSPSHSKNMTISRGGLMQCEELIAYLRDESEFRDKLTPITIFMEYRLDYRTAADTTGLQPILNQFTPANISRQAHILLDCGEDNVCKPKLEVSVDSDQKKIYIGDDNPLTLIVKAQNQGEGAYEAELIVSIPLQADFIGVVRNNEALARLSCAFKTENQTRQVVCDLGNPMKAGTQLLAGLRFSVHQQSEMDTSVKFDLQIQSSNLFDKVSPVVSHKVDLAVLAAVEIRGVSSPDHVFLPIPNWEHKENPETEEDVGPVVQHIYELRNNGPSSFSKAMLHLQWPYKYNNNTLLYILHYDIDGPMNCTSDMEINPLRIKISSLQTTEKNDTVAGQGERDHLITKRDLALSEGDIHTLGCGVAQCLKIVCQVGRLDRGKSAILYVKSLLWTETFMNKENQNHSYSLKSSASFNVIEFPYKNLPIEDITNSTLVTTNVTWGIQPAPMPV
recombinant Antigen 1 (recombinant Ab1 target; recombinant integrin αvβ6 antigen), sequence (P18564 22-709, chain 2 of 2, further chain): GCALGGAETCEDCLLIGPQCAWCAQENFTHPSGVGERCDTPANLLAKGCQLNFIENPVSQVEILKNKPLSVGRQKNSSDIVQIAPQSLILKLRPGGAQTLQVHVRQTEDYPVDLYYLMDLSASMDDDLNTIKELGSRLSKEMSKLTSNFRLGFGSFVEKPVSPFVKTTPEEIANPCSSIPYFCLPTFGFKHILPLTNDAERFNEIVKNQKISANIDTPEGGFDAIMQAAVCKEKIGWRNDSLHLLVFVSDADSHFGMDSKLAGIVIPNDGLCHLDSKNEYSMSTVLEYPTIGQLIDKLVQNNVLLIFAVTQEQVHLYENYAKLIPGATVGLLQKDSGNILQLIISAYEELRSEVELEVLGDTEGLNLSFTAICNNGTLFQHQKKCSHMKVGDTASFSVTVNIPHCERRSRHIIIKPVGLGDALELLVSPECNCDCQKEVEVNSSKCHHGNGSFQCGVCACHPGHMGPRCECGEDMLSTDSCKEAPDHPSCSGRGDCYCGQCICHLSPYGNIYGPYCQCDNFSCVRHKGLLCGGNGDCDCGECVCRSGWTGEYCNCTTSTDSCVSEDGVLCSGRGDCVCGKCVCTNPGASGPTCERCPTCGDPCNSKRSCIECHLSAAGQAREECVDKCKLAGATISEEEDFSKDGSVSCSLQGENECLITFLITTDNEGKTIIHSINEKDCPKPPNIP

Binder	Binding Bmax (OD450) [1] [OD450]	EC50 [1] [nM]	EC50 fold change from Ab1 [1] [fold]	EC50 [2] [nM]	EC50 fold change from Ab1 [2] [fold]	Binding Bmax (OD450) (recombinant human CD47)	EC50 (recombinant human CD47) [nM]	EC50 fold change from hB6H12.3 (recombinant human CD47) [fold]	Tm (melting temperature of the heavy chain homodimer) [3]
Vel-IPV-Ab1 Coil 134 (antibody, part only; not given: Ab1 heavy and light chains, part only) heavy, part: QGASTSVDELQAEVDQLEDENYAKKTKVAQLRKKVEKLGSIPVSLRSG light, part: QGASTTVAQLEEKVKTLRAENYEIKSEVQRLEEQVAQLGSIPVSLRSG	0.7	14.7	67						
Vel-IPV-Ab1 Coil 137 (antibody, part only; not given: Ab1 heavy and light chains, part only) heavy, part: QGASTSVDELQAEVDQLEDENYAVKTKVAQLRKKVEKLGSIPVSLRSG light, part: QGASTTVAQLEEKVKTLRAENYELKSEVQRLEEQVAQLGSIPVSLRSG	1.2	128	584						
Vel-IPV-Ab1 Coil 138 (antibody, part only; not given: Ab1 heavy and light chains, part only) heavy, part: QGASTSVDELQAEVDQLEDENYALKTKLAQLRKKVEKLGSIPVSLRSG light, part: QGASTTVAQLEEKVKTLRAENYELKSEIQRLEEQVAQLGSIPVSLRSG	1.8	117	532						
Vel-IPV-Ab1 Coil 142 (antibody, part only; not given: Ab1 heavy and light chains, part only) heavy, part: QGASTSVDELQAEVDQLEDENYALKTKKAQLRKKVEKLGSIPVSLRSG light, part: QGASTTVAQLEEKVKTLRAENYELKSEIQRLEEQVAQLGSIPVSLRSG	1.8	101	461						
Vel-IPV-Ab1 Coil 145 (antibody, part only; not given: Ab1 heavy and light chains, part only) heavy, part: QGASTSVDELQAEVDQLEDENYALKTKIAQLRKKVEKLGSIPVSLRSG light, part: QGASTTVAQLEEKVKTLRAENYEAKSEVQRLEEQVAQLGSIPVSLRSG	1.2	69.6	290						
Vel-IPV-Ab1 Coil 106 (antibody, part only; not given: Ab1 heavy and light chains, part only) heavy, part: QGASTSVDELQAEVDQLEDENYAYKTKVAQLRKKVEKLGSIPVSLRSG light, part: QGASTTVAQLEEKVKTLRAENYEFKSEVQRLEEQVAQLGSIPVSLRSG	0.8	190	657	38.4	274				
Vel-IPV-Ab1 Coil 149 (antibody, part only; not given: Ab1 heavy and light chains, part only) heavy, part: QGASTSVDELQAEVDQLEDENYAIKTKIAQLRKKVEKLGSIPVSLRSG light, part: QGASTTVAQLEEKVKTLRAENYEAKSEVQRLEEQVAQLGSIPVSLRSG	1.1	43.6	182						
Vel-IPV-Ab1 Coil 151 (antibody, part only; not given: Ab1 heavy and light chains, part only) heavy, part: QGASTSVDELQAEVDQLEDENYALKTKLAQLRKKVEKLGSIPVSLRSG light, part: QGASTTVAQLEEKVKTLRAENYELKSELQRLEEQVAQLGSIPVSLRSG	1.5	198	827						
Vel-IPV-Ab1 Coil 103 (antibody, part only; not given: Ab1 heavy and light chains, part only) heavy, part: QGASTSVDELQAEVDQLEDENYAGKTKVAQLRKKVEKLGSIPVSLRSG light, part: QGASTTVAQLEEKVKTLRAENYEYKSEVQRLEEQVAQLGSIPVSLRSG	0.6	75.3	260	2.1	15				
Vel-IPV-Ab1 Coil 107 (antibody, part only; not given: Ab1 heavy and light chains, part only) heavy, part: QGASTSVDELQAEVDQLEDENYASKTKVAQLRKKVEKLGSIPVSLRSG light, part: QGASTTVAQLEEKVKTLRAENYEFKSEVQRLEEQVAQLGSIPVSLRSG	0.6	133	458	2.8	20				
Vel-IPV-Ab1 Coil 110 (antibody, part only; not given: Ab1 heavy and light chains, part only) heavy, part: QGASTSVDELQAEVDQLEDENYAGKTKVAQLRKKVEKLGSIPVSLRSG light, part: QGASTTVAQLEEKVKTLRAENYEWKSEVQRLEEQVAQLGSIPVSLRSG	1	548	1890	42.9	306				
Vel-IPV-Ab1 Coil 111 (antibody, part only; not given: Ab1 heavy and light chains, part only) heavy, part: QGASTSVDELQAEVDQLEDENYAGKTKVAQLRKKVEKLGSIPVSLRSG light, part: QGASTTVAQLEEKVKTLRAENYEFKSEVQRLEEQVAQLGSIPVSLRSG	1.3	619	2140	9.1	65				
Vel-IPV-Ab1 Coil 114 (antibody, part only; not given: Ab1 heavy and light chains, part only) heavy, part: QGASTSVDELQAEVDQLEDENYAWKTKVAQLRKKVEKLGSIPVSLRSG light, part: QGASTTVAQLEEKVKTLRAENYEFKSEVQRLEEQVAQLGSIPVSLRSG	1.1	278	959	59.3	423				
Vel-IPV-Ab1 Coil 115 (antibody, part only; not given: Ab1 heavy and light chains, part only) heavy, part: QGASTSVDELQAEVDQLEDENYAWKTKVAQLRKKVEKLGSIPVSLRSG light, part: QGASTTVAQLEEKVKTLRAENYEYKSEVQRLEEQVAQLGSIPVSLRSG	1	184	633	152	1090				
Vel-IPV-Ab1 Coil 116 (antibody, part only; not given: Ab1 heavy and light chains, part only) heavy, part: QGASTSVDELQAEVDQLEDENYAAKTKVAQLRKKVEKLGSIPVSLRSG light, part: QGASTTVAQLEEKVKTLRAENYEFKSEVQRLEEQVAQLGSIPVSLRSG	0.7	368	1270	7.5	54				
Vel-IPV-Ab1 Coil 117 (antibody, part only; not given: Ab1 heavy and light chains, part only) heavy, part: QGASTSVDELQAEVDQLEDENYAFKTKVAQLRKKVEKLGSIPVSLRSG light, part: QGASTTVAQLEEKVKTLRAENYEWKSEVQRLEEQVAQLGSIPVSLRSG	1.1	322	1110	144	1030				
Vel-IPV-Ab1 Coil 118 (antibody, part only; not given: Ab1 heavy and light chains, part only) heavy, part: QGASTSVDELQAEVDQLEDENYAFKTKVAQLRKKVEKLGSIPVSLRSG light, part: QGASTTVAQLEEKVKTLRAENYESKSEVQRLEEQVAQLGSIPVSLRSG	0.8	45.2	181	16.8	120				
Vel-IPV-Ab1 Coil 121 (antibody, part only; not given: Ab1 heavy and light chains, part only) heavy, part: QGASTSVDELQAEVDQLEDENYAWKTKVAQLRKKVEKLGSIPVSLRSG light, part: QGASTTVAQLEEKVKTLRAENYEAKSEVQRLEEQVAQLGSIPVSLRSG	0.9	140	562	132	943				
Vel-IPV-Ab1 Coil 122 (antibody, part only; not given: Ab1 heavy and light chains, part only) heavy, part: QGASTSVDELQAEVDQLEDENYAYKTKVAQLRKKVEKLGSIPVSLRSG light, part: QGASTTVAQLEEKVKTLRAENYEAKSEVQRLEEQVAQLGSIPVSLRSG	0.6	85.9	344	14.5	104				
Vel-IPV-Ab1 Coil 124 (antibody, part only; not given: Ab1 heavy and light chains, part only) heavy, part: QGASTSVDELQAEVDQLEDENYASKTKVAQLRKKVEKLGSIPVSLRSG light, part: QGASTTVAQLEEKVKTLRAENYEWKSEVQRLEEQVAQLGSIPVSLRSG	0.6	129	517	14.1	10				
Vel-IPV-Ab1 Coil 126 (antibody, part only; not given: Ab1 heavy and light chains, part only) heavy, part: QGASTSVDELQAEVDQLEDENYAYKTKVAQLRKKVEKLGSIPVSLRSG light, part: QGASTTVAQLEEKVKTLRAENYESKSEVQRLEEQVAQLGSIPVSLRSG	0.7	111	444	9.5	68				
Vel-IPV-Ab1 Coil 129 (antibody, part only; not given: Ab1 heavy and light chains, part only) heavy, part: QGASTSVDELQAEVDQLEDENYASKTKVAQLRKKVEKLGSIPVSLRSG light, part: QGASTTVAQLEEKVKTLRAENYEYKSEVQRLEEQVAQLGSIPVSLRSG	0.6	76.6	306	2.6	19				
Vel-IPV-hB6H12.3 Coil 149 (antibody, part only; not given: hB6H12.3 heavy and light chains, part only) heavy, part: QGASTSVDELQAEVDQLEDENYAIKTKIAQLRKKVEKLGSIPVSLRSG light, part: QGASTTVAQLEEKVKTLRAENYEAKSEVQRLEEQVAQLGSIPVSLRSG						1.7	298	117	
Vel-IPV-hB6H12.3 Coil 164 (antibody, part only; not given: hB6H12.3 heavy and light chains, part only) heavy, part: QGASTSVDELQAEVDQLEDENYASKTKVAQQRKKVEKLGSIPVSLRSG light, part: QGASTTVAQLEEKVKTLRAENYERKSEVQRVEEQVAQLGSIPVSLRSG						1.5	21.5	8	
Vel-IPV-hB6H12.3 Coil 152 (antibody, part only; not given: hB6H12.3 heavy and light chains, part only) heavy, part: QGASTSVDELQAEVDQLEDENYAHKTKVAQLRKKVEKLGSIPVSLRSG light, part: QGASTTVAQLEEKVKTLRAENYELKSEAQREEEQVAQLGSIPVSLRSG						1.5	31.7	12	
QGASTSVDELQAEVDQLEDENYAIKTKLAQLRKKVEKLGSIPVS [Coil 148 heavy chain peptide for CD studies (VelB L24I/V28L)]									Tm=40.8 °C
QGASTSVDELQAEVDQLEDENYALKTKVAQLRKKVEKLGSIPVS [Vel heavy chain peptide for CD studies (VelB)]									Tm=23.3 °C
QGASTSVDELQAEVDQLEDENYAIKTKVAQLRKKVEKLGSIPVS [Coil 10 heavy chain peptide for CD studies (VelB L24I)]									Tm=21.0 °C
